For the experiment, the target named is Nodal, endogenous in mouse F9 Cripto-/- cells (mouse) (UniProt P43021). As to the kind of experiment: cell-based or functional assay.
Sequence of UniProt P43021 (P43021 245-354 limits assumed): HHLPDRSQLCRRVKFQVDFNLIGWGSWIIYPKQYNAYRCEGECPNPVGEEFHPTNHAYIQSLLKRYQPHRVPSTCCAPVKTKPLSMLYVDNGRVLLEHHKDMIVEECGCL

Substance “human Cripto-1 (protein encoded by TDGF1) (from UniProt P13385 31-150)” yielded a luciferase activity, FAST transcription factor dependent (n2)7-luciferase reporter assay in F9 Cripto-/- cells, fold increase compared with control of 4 to 6 fold.
